Data reported in US11046771 (dated 2021).

Columns and labels:
HER2 (cell surface) [1] = biological target: T1, HER2 (cell surface) (human, UniProt P04626); experiment: FACS, AU565 cells
HER2 (cell surface) [2] = biological target: T1, HER2 (cell surface); experiment: FACS, A431 cells

B1: 098 (PC1014-098) (antibody, V domains shown)
VH: EVQLLESGGGLVQPGGSLRLSCAASGFTFSNYGMSWVRQAPGKGLEWVSAISGSAYSTYYADSVKGRFTISRDNSKNTLWLQMNSLRAEDTAVYYCAKAHYHGSGSYYTLFDYWGQGTLVTVSS
VL: DIQMTQSPSSLSASVGDRVTITCRASQGISSWLAWYQQKPEKAPKSLIYAASSLQSGVPSRFSGSGSGTDFTLTISSLQPEDFATYYCQQYNSYPYTFGQGTKLEIK
- EC50 (HER2 (cell surface) [1]): 0.336 µg/mL
- EC50 (HER2 (cell surface) [2]): 0.068 µg/mL
